# Results from the RNAGym collection of RNA variant scans (doi:10.1073/pnas.2313332121).
# Fewer inactive variants are shown than the library holds.
# B1: TPR 5TU (parent)
# chain: GGAUCUUCUCGAUCUAACAAAAAAGACAAAUCUGCCACAAAGCUUGAGAGCAUCUUCGGAUGCAGAGGCGGCAGCCUUCGGUGGCGCGAUAGCGCCAACGUUCUCAACUAUGACACGCAAAACGCGUGCUCCGUUGAAUGGAGUUUAUCAUG
# Variants of: B1
# Test: polymerase ribozyme fitness, log enrichment relative to wild type (log ratio); higher = more active; in vitro selection for triplet polymerase activity
# Procedure, shortened: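 Libraries of mutants in each subunit of a heterodimeric triplet polymerase ribozyme were generated by PCR and transcribed. In triplicate, each went through one in vitro selection round: annealing with biotinylated primer, partner subunit and triplets; frozen incubation at −7 °C; gel excision of extended constructs; streptavidin-bead capture; RT-PCR. Fitness, taken from Illumina sequencing of input and output libraries, is the logarithm of a genotype's enrichment over wild-type enrichment, averaged across replicates with inverse-variance weights. The logarithm is base 2, and genotypes needed ≥10 input reads and ≥1 read per output to be kept.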
row,Variant,polymerase ribozyme fitness (log ratio)
1,A3U U7A C8A C63U U90G,≤ -4.2
2,A3U G81C,-0.0386
3,A3U G83A C118G A142C,-3.66
4,A3U A28C C63U C85U A142C G152U,-3.91
5,A3U C8U C27A A28C C51A A52C C54A C93U C103G C108G A115C C118A U135A A142U,≤ -4.2
6,U4A A20U G50C U55A A73G G84A G88C C132U U135A,≤ -4.2
7,U4A C51G G84A A106U C118A,≤ -4.2
8,A3U G59C C85U G126A,-0.686
9,A3C C76U C96A,-0.525
10,U4A C51U G94C A98U,-1.63
11,A3C G25A A40U G71A C85U C96U A119C A121G G140C,≤ -4.2
12,A3U C96U A97G,0.661
13,A3G C87U,-0.743
14,A3U C14G A30U U55G C95U,≤ -4.2
15,A3C G46C A49G G92A U104G A113U G124A A142U,≤ -4.2
16,A3U C10U U61A G65A A66C,≤ -4.2
17,U4A A12U G80U G81U G92C,-0.513
18,A3U C10U U56A C96U C116U G143A,-3.56
19,A3G U9G A16G A21C G84A G133C G141A,≤ -4.2
20,U4A C8U C108G G140C,≤ -4.2
21,A3G C93U,-1.78
22,A3U G59U U82A C93A A142C,≤ -4.2
23,A3U A17U U56A G83U C93G C96G C125G G136C,≤ -4.2
24,A3U C5G A19U C36U G83A,-3.1

row,Variant,polymerase ribozyme fitness (log ratio)
1,A3G G94C,-1.07
2,A3U A22C U31C U61A,-2.45
3,A3U C76A C87U A113C U130A,≤ -4.2
4,A3U C51A G124C,-2.87
5,U4A A19U A24U C35A C57G A60C U101G,≤ -4.2
6,U4A C8A U56A A122G G141A,-4.11
7,A3C G58C C95G C129A A142C,≤ -4.2
8,A3C U4G A49U U61C G70A G92U,≤ -4.2
9,U4A C5G A22U G25U A30U C63U A66C G143U,≤ -4.2
10,U4A C18U G67A C93G G124A,≤ -4.2
11,A3U A23C,-3.76
12,A3C U101G C105U A138C,-4.17
13,A3U C76G A89U C93U G100A A137C G143U U144A,≤ -4.2
14,U4A C5U C32A C54U G58A A73G G84A A91G A121U C125U U145C U146C,≤ -4.2
15,A3G G50C C76A A115U C131G,≤ -4.2
16,A3G U6G U90G C103U G141C,≤ -4.2
17,A3G C14G A147U,-2.9
18,A3C U7G C87U C93G A98G G100U A120C U148A U151G,≤ -4.2
19,A3G U4A C54U U102G C125G,-3.99
20,A3U C54U,-1.57
21,A3U A19U C57U G62U C69U C85U C99G U130C G136U U146G,≤ -4.2
22,A3U C36U C95U,-3.09
23,U4A C85U,-1.53
24,A3G C18U U56G G94A A110U A138U U139A,≤ -4.2

row,Variant,polymerase ribozyme fitness (log ratio)
1,A3U G80U G94U U104G C108U G126C U148A,≤ -4.2
2,U4A C5G C69U C79U C85U G94C G117A G128U,≤ -4.2
3,A3G A17U C85A A106G A107U C118G U134A A142G C149U,≤ -4.2
4,A3C G34A C96G,-3.63
5,A3U U61G C95U,-1.39
6,A3U A23U C96U,≤ -4.2
7,A3U A29C U61C,≤ -4.2
8,A3C C63G C118U,-0.545
9,A3U C114U C118G A137C G141C,≤ -4.2
10,U4A A17C G59C A119G,-0.404
11,A3U C8U C96U,-1.89
12,A3U A47C C93U C118U,-2.05
13,A3U C51U C95U,-1.09
14,A3C G70C C87G C96G A107G U146G,≤ -4.2
15,A3U U56C C87U A89G U101G,-2.52
16,U4A C103A,-2.38
17,A3C C85A U130A C132G,≤ -4.2
18,A3U C5A A30U A39U A49U C99U G124A,≤ -4.2
19,A3G C27U U55A U90C G94U C114G C116A,≤ -4.2
20,A3U U53A G84U A138G G152A,≤ -4.2
21,U4A C5G G58A A73U C75U C85A G100A C105G U145A,≤ -4.2
22,A3U A12G A22C A37U A47G A97G,-3.5
23,A3G A91U,≤ -4.2
24,A3C C85U C96U,-0.556

row,Variant,polymerase ribozyme fitness (log ratio)
1,A3G A41U C96U,-1.56
2,A3C U4G A21C C38G A41C G68A G81A C85U C95U C116G,≤ -4.2
3,A3U A30U G86U C87U,≤ -4.2
4,A3G U13G U144C,0.104
5,A3G C5G G84A G88A,-3.09
6,U4A A16U A113C A115U,≤ -4.2
7,U4A A22U C63U G67A C75A G94A C96U,≤ -4.2
8,U4A A16U A17G A21U A24U G84A C114U A122U A142C,≤ -4.2
9,A3U C5A U15C A19G C57G C118G G136A G141C A142C,≤ -4.2
10,A3G A23U C85A A106U G133U G143U,≤ -4.2
11,A3U U7C U56A G58C A60C G70C G88A G94A A115U,≤ -4.2
12,A3G C8U G25C U45G U55G G81C C95U C114U G117U A120G A122G,≤ -4.2
13,A3C U6A,-0.461
14,A3G A52U C54U U77G A121G A122G A137G,≤ -4.2
15,A3G U7G C38U A40G C54G C95U U145A,≤ -4.2
16,A3U A30G C35G A39U G59A A60C C87U U134A,≤ -4.2
17,A3U C36U G67U C95A,≤ -4.2
18,A3U G46A A113U,-3.1
19,U4A C36A G48C G86A,≤ -4.2
20,A3G U4G U15A C27U C38A C57G G92A A119U,≤ -4.2
21,A3G U31G G50A C95G C118G A138C U146A G152U,≤ -4.2
22,A3U A24G C32G,-4.15
23,A3G A20C U53A G81C A121G,-1.59
24,A3G A89G C93U A137C A138U G140A,≤ -4.2

row,Variant,polymerase ribozyme fitness (log ratio)
1,U4A A39C U53A C96U C108U A120U C125U,≤ -4.2
2,A3U A20U G50C,≤ -4.2
3,A3G C10G A41G C76A U145A,≤ -4.2
4,A3U C57A,-0.997
5,A3U C57U,0.223
6,A3C U4G G58C C93U C149U,-3.55
7,A3U C76U G124C G141C,-3.96
8,A3U A52C G86U A119U G141U,-3.78
9,A3U U7G C87A A91G C103U U135C,≤ -4.2
10,A3U A22G C43U G68A U78G G92A A107U A110G A113G U151C,≤ -4.2
11,A3G G11C C87A A91U A137G,≤ -4.2
12,U4A C57A C75G U134G,≤ -4.2
13,A3C G58A C87U,-0.495
14,A3G G84A A98U,-1.36
15,A3G C63U A73G G86U U135A,-3.75
16,A3U G94A,-1.21
17,A3C U6G G46C C75A C79A G86A C103G G126U,≤ -4.2
18,A3G C8G A30G G48C A64C C87G A137G,≤ -4.2
19,A3U U53A,-1.77
20,A3G C14U G34A G48A C85A G126U G136A U144G,≤ -4.2
21,A3U A17G A49C C93A U104A A119C C132U G141C U145G,≤ -4.2
22,A3U U4A A16U U31A C85U G88A C125U U146G,≤ -4.2
23,U4A A23U C35U G46A G84U C103U U139A,≤ -4.2
24,A3G G11A C32U C85G C87A G124U,≤ -4.2

row,Variant,polymerase ribozyme fitness (log ratio)
1,A3U A60G G70C G80C G86A U135G U144A,≤ -4.2
2,A3G G86A,-1.52
3,A3U G48A A89G C95A U102G,≤ -4.2
4,A3G A41U A47G U101G G136U,≤ -4.2
5,A3G U13G A21U A40U C69A C79G G80A G83U C85U G86U G136C,≤ -4.2
6,A3C U13G G62A A66C U145A,≤ -4.2
7,A3G U15A U90C G94U G124A C125U,≤ -4.2
8,A3U A22C C87A G92U,-0.18
9,A3U C96G,-1.47
10,A3U C96A,-0.199
11,A3U A30G U104C C105A C114G A115G A122G C129A,≤ -4.2
12,A3U C93A,-2.19
13,A3U C93G,-2.5
14,U4A A37C U61A A66G G133U U144A,≤ -4.2
15,A3U C85G C93G G136A A142C,≤ -4.2
16,A3U G58C,-0.0781
17,A3G A12C A39G A97U G133A G143C,≤ -4.2
18,A3G A16G A24C A49G G80C,≤ -4.2
19,A3G A113G C118G,-3.65
20,U4A C5G C8G U9G U53A C54A C72A C79A C85U A115C U139A G140C,≤ -4.2
21,A3G C14G U61G G71A G86C A91C C105G C114G G143A U145A,≤ -4.2
22,A3C G50U,-1.07
23,A3G A17U A60U,-1.21
24,A3U U82C U101A,-0.128

row,Variant,polymerase ribozyme fitness (log ratio)
1,A3G A20C A29U A41G C54U C87U C95U U135G,≤ -4.2
2,A3G U7G G46A A47U C51U G94C C125U G143A,≤ -4.2
3,A3U A91C,-3.34
4,A3U U82G U104G,-1.04
5,A3G G84C,-1.98
6,A3G A21C A60G C76A C85G,-0.977
7,U4A A21U C38U C85A C87G C103A,≤ -4.2
8,A3G A22C U45C A66C G67C C93U A113U,≤ -4.2
9,U4A A49G G50C A66C C76G C93U,≤ -4.2
10,A3G A19C G92A A98G,-3.18
11,A3G A12C G62U G70C C79G G81A G84A A147C,≤ -4.2
12,A3U G88A A110G,≤ -4.2
13,A3U G84A,-1.14
14,A3U G84U,-2.4
15,A3U A49U U55C A91U,≤ -4.2
16,U4A C43G,≤ -4.2
17,A3G C38A G124C U134G G136U U146G,≤ -4.2
18,A3U U13G A20U G74C,≤ -4.2
19,A3C C85U G141C,-2.07
20,A3U C32G A49U,≤ -4.2
21,A3U G83A C87U U111G,≤ -4.2
22,A3U A28C G84A G117U A119U G124U,≤ -4.2
23,A3U U56A,-1
